Measured values as given in IntAct's records for PubMed 19665976.

B1: Atlastin-1 (Homo sapiens), Q8WXF7 (parent)
chain: MAKNRRDRNSWGGFSEKTYEWSSEEEEPVKKAGPVQVLIVKDDHSFELDETALNRILLSEAVRDKEVVAVSVAGAFRKGKSFLMDFMLRYMYNQESVDWVGDYNEPLTGFSWRGGSERETTGIQIWSEIFLINKPDGKKVAVLLMDTQGTFDSQSTLRDSATVFALSTMISSIQVYNLSQNVQEDDLQHLQLFTEYGRLAMEETFLKPFQSLIFLVRDWSFPYEFSYGADGGAKFLEKRLKVSGNQHEELQNVRKHIHSCFTNISCFLLPHPGLKVATNPNFDGKLKEIDDEFIKNLKILIPWLLSPESLDIKEINGNKITCRGLVEYFKAYIKIYQGEELPHPKSMLQATAEANNLAAVATAKDTYNKKMEEICGGDKPFLAPNDLQTKHLQLKEESVKLFRGVKKMGGEEFSRRYLQQLESEIDELYIQYIKHNDSKNIFHAARTPATLFVVIFITYVIAGVTGFIGLDIIASLCNMIMGLTLITLCTWAYIRYSGEYRELGAVIDQVAAALWDQGSTNEALYKLYSAAATHRHLYHQAFPTPKSESTEQSEKKKM
partner: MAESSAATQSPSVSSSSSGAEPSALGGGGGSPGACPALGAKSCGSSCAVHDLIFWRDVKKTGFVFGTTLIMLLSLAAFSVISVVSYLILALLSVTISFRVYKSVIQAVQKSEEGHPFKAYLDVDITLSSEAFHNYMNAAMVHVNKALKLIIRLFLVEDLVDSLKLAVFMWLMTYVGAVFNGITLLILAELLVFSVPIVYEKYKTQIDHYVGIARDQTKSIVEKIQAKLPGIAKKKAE

Variants of: B1
Conditions: with Rtn3, Q9ES97-3

| Variant | effect of a mutation on the interaction |
| --- | --- |
| MAKNRRDRNSWGGFSEKTYEWSSEEEEPVKKAGPVQVLIVKDDHSFELDETALNRILLSEAVRDKEVVAVSVAGAFRKGASFLMDFMLRYMYNQESVDWVGDYNEPLTGFSWRGGSERETTGIQIWSEIFLINKPDGKKVAVLLMDTQGTFDSQSTLRDSATVFALSTMISSIQVYNLSQNVQEDDLQHLQLFTEYGRLAMEETFLKPFQSLIFLVRDWSFPYEFSYGADGGAKFLEKRLKVSGNQHEELQNVRKHIHSCFTNISCFLLPHPGLKVATNPNFDGKLKEIDDEFIKNLKILIPWLLSPESLDIKEINGNKITCRGLVEYFKAYIKIYQGEELPHPKSMLQATAEANNLAAVATAKDTYNKKMEEICGGDKPFLAPNDLQTKHLQLKEESVKLFRGVKKMGGEEFSRRYLQQLESEIDELYIQYIKHNDSKNIFHAARTPATLFVVIFITYVIAGVTGFIGLDIIASLCNMIMGLTLITLCTWAYIRYSGEYRELGAVIDQVAAALWDQGSTNEALYKLYSAAATHRHLYHQAFPTPKSESTEQSEKKKM [K80A] | decreasing interaction |
